Biological target: synthetic peptides derived from the caveolin scaffolding domain (CSD)

B1: endothelial nitric oxide synthase (eNOS), endogenous, human umbilical vein endothelial cells (HUVECs) (protein)
chain: GNLKSVAQEPGPPCGLGLGLGLGLCGKQGPATPAPEPSRAPASLLPPAPEHSPPSSPLTQPPEGPKFPRVKNWEVGSITYDTLSAQAQQDGPCTPRRCLGSLVFPRKLQGRPSPGPPAPEQLLSQARDFINQYYSSIKRSGSQAHEQRLQEVEAEVAATGTYQLRESELVFGAKQAWRNAPRCVGRIQWGKLQVFDARDCRSAQEMFTYICNHIKYATNRGNLRSAITVFPQRCPGRGDFRIWNSQLVRYAGYRQQDGSVRGDPANVEITELCIQHGWTPGNGRFDVLPLLLQAPDDPPELFLLPPELVLEVPLEHPTLEWFAALGLRWYALPAVSNMLLEIGGLEFPAAPFSGWYMSTEIGTRNLCDPHRYNILEDVAVCMDLDTRTTSSLWKDKAAVEINVAVLHSYQLAKVTIVDHHAATASFMKHLENEQKARGGCPADWAWIVPPISGSLTPVFHQEMVNYFLSPAFRYQPDPWKGSAAKGTGITRKKTFKEVANAVKISASLMGTVMAKRVKATILYGSETGRAQSYAQQLGRLFRKAFDPRVLCMDEYDVVSLEHETLVLVVTSTFGNGDPPENGESFAAALMEMSGPYNSSPRPEQHKSYKIRFNSISCSDPLVSSWRRKRKESSNTDSAGALGTLRFCVFGLGSRAYPHFCAFARAVDTRLEELGGERLLQLGQGDELCGQEEAFRGWAQAAFQAACETFCVGEDAKAAARDIFSPKRSWKRQRYRLSAQAEGLQLLPGLIHVHRRKMFQATIRSVENLQSSKSTRATILVRLDTGGQEGLQYQPGDHIGVCPPNRPGLVEALLSRVEDPPAPTEPVAVEQLEKGSPGGPPPGWVRDPRLPPCTLRQALTFFLDITSPPSPQLLRLLSTLAEEPREQQELEALSQDPRRYEEWKWFRCPTLLEVLEQFPSVALPAPLLLTQLPLLQPRYYSVSSAPSTHPGEIHLTVAVLAYRTQDGLGPLHYGVCSTWLSQLKPGDPVPCFIRGAPSFRLPPDPSLPCILVGPGTGIAPFRGFWQERLHDIESKGLQPTPMTLVFGCRCSQLDHLYRDEVQNAQQRGVFGRVLTAFSREPDNPKTYVQDILRTELAAEVHRVLCLERGHMFVCGDVTMATNVLQTVQRILATEGDMELDEAGDVIGVLRDQQRYHEDIFGLTLRTQEVTSRIRTQSFSLQERQLRGAVPWAFDPPGSDTNSP
With B1 the “phosphorylation of eNOS (Ser1177) in atorvastatin-treated HUVECs, immunoblot” value was “blocked the phosphorylation of eNOS”.

Reference: patent US20040110684
